Measurements taken from patent publication US7550429B2, “Glycoproteins having lipid mobilising properties and therapeutic applications thereof” (Aston University, priority 1998, dated 2009).

Tests used:
[1] = system: murine epididymal adipocytes; experiment: Lipolytic assay: glycerol release from isolated adipocytes; type: cell-based, mouse; settings: for Lipid mobilizing activity, glycerol released: 5 μg human or 10 μg mouse LMF, incubated overnight at 4° C. with or without pAb 10 μg, mean±SEM, three determinations; for Stimulation of glycerol release (lipolysis): different doses, freshly isolated murine epididymal adipocytes, FIG. 9; for Specific activity: purified product after final stage HPLC Resource-iso
Procedure: Single cell suspensions of white adipocytes were prepared from finely minced epididymal fat pads of male BKW mice using collagenase digestion, substantially as described by S. A. Beck et al. (see above-mentioned reference 14). Samples to be assayed were incubated with 10^5-2×10^5 adipocytes (determined by means of a haemocytometer) for 2 h at 37° C. in 1 ml of Krebs-Ringer bicarbonate buffer, pH 7.2. The concentration of glycerol released was determined enzymatically by the method of Wieland as referred to above (see also GB2217330A). Control samples containing adipocytes alone were analyzed to determine the spontaneous glycerol release. Lipid mobilizing activity was expressed as μmol glycerol released/10^5 adipocytes/2 h.

[2] = system: murine adipocyte plasma membrane adenylate cyclase; experiment: Adenylate cyclase assay with adipocyte plasma membranes; type: biochemical, mouse; settings: GTP-dependent stimulation
Procedure: In a typical procedure white adipocytes were isolated from mouse epididymal fat pads as referred to above except that the cells were washed in 250 mM sucrose, 2 mM ethyleneglycol bis(β-aminoethylether)-N,N,N′,N′ (EGTA), 10 mM Tris-HCl (pH 7.4). Adipocytes were resuspended in 20 ml of the above buffer and homogenised by aspirating through a Swinny filter at least 10 times. The cell homogenate was then centrifuged at 300 g for 5 min, the fat cake removed from the surface and the remaining pellet and infranatant transferred to clean tubes. These were centrifuged at 30,000 g for 1 h at 4° C. and the membrane pellet formed was resuspended in the sucrose buffer (200 to 400 μl). Plasma membranes were separated from other organelle membranes on a self-forming gradient of Percoll™ colloidial silica particles. […]
An adenylate cyclase assay used was based on that developed by Salomon et al. (reference 16). […] Background binding was determined by running samples without [α-^32P] […]
Samples containing labelled nucleotides were diluted to 1 ml with water and loaded onto Dowex™ 50W8-400 ion-exchange columns primed with 10 ml of water. […] The radioactivity was determined using a Tri-carb™ 2000A scintillation analyser.

[3] = system: ex-breeder male NMRI mice; experiment: In vivo fat depletion, iv LMF in ex-breeder male NMRI mice; set-up: species or system mouse
Procedure: (§1) Non-esterified fatty acids (NEFA) were determined using a Wako-ASC-ACOD kit (Wako Chemical GmbH, Neuss, Germany). Triglycerides were determined using a Triglyceride kit (Sigma Chemical Co., Poole, United Kingdom) and 3-hydroxybutyrate by a quantitative enzymatic determination kit (Sigma). Glucose was measured using a glucose analyser (Beckman, Irvine, Calif.) and glycerol was determined enzymatically using the method of Wieland as described in “Methods of Enzymatic Analysis” (Ed. Bergmeyer, H. U.) Vol. 3, pp 1404-1409, published by Academic Press, London (1974) (reference 13).
FIG. 10 is a diagram showing change in body weight of ex-breeder male NMRI mice (30-40 g) produced by intravenous (iv) administration of LMF (8 μg) isolated from human urine as described in Example 2 (o) and of control mice administered PBS by iv injection (x).
In order to determine if the purified LMF isolated from human urine as in Example 2 was capable of fat depletion in vivo a sample of this LMF material ([…]) was injected into male ex breeder NMRI mice over a 72 h period. The LMF was injected at times 0, 17, 24, 41, 48, 62 and 72 hours and control mice were similarly injected with phosphate-buffered saline (PBS) at the same time points. The animals were killed at 89 h and the body composition and serum metabolite levels were determined. […] Changes in the body composition and serum metabolic levels are summarised in Table 5 and it will be seen that total body weight decreased by 3.6 g during the overall 89 h period of the experiment without change in food and water intake. […] Despite the fat mobilisation there were significant reductions in the serum concentrations of non-esterified fatty acids (NEFA), glycerol and glucose in mice receiving LMF.

ob/ob mice = experiment: In vivo effect of iv LMF in obese ob/ob mice; set-up: species or system mouse
Procedure: as §1
FIG. 11 is a diagram similar to FIG. 10 showing change in body weight of ob/ob mice produced by iv administration of LMF (35 μg) (o) isolated from human urine as described in Example 2 and of control mice (x) administered PBS by iv injection. LMF was injected at times 0, 16, 24, 40, 48, 64, 72, 90, 96, 113, 120, 137 and 144 h; PBS was injected at the same time points. The animals were killed 160 h after the first injection. Results are expressed as mean±SEM for 5 animals per group.
As shown in FIG. 11 and by the data in Table 6, intravenous administration to obese ob/ob mice of LMF (35 μg) isolated from human urine produced a similar result. There was a decrease in total body weight which became significant within 24 h of the first injection and remained below that of the control group over the 160 h of the experiment.

[4] = LMF 8 μg iv over 72 h, killed at 89 h
[5] = LMF 35 μg iv, 160 h after first injection

B1: Human LMF: 43 kDa glycoprotein lipid mobilising factor purified from urine of cachectic cancer patients (Example 2); Zn-α2-glycoprotein type (protein, UniProt P25311 21-298, looked up)
Zinc-alpha-2-glycoprotein: QENQDGRYSLTYIYTGLSKHVEDVPAFQALGSLNDLQFFRYNSKDRKSQPMGLWRQVEGMEDWKQDSQLQKAREDIFMETLKDIVEYYNDSNGSHVLQGRFGCEIENNRSSGAFWKYYYDGKDYIEFNKEIPAWVPFDPAAQITKQKWEAEPVYVQRAKAYLEEECPATLRKYLKYSKNILDRQDPPSVVVTSHQAPGEKKKLKCLAYDFYPGKIDVHWTRAGEVQEPELRGDVLHNGNGTYQSWVVVAVPPQDTAPYSCHVQHSSLAQPLVVPWEAS
Q: What does the source list for B1?
A: Lipid mobilizing activity, glycerol released [1]: 0.0062 ± 0.0002 μmole glycerol/10^5 adipocytes/2 h; Stimulation of glycerol release (lipolysis) [1]: stimulated glycerol release with a comparable dose-response profile; Specific activity [1]: 164.3 μmol/10^5 adipocytes/mg protein; Effect of α-chymotrypsin digestion on in vitro biological activity ([1]; α-chymotrypsin digestion): chymotrypsin destroyed the in vitro biological activity; GTP concentration at maximal stimulation of adenylate cyclase [2]: 0.1 µM; Food intake ([3]; LMF 8 μg iv over 72 h): 8.0 ± 0.2 g/day; Water intake ([3]; LMF 8 μg iv over 72 h): 4.4 ± 0.4 mL/day; Body composition: Fat [3, 4]: 3.4 ± 0.4 g; Body composition: Non Fat [3, 4]: 9.6 ± 0.9 g; Body composition: Water [3, 4]: 18.3 ± 0.8 g; Serum Glucose [3, 4]: 186 ± 0.08 mg/100 ml; Serum Glycerol [3, 4]: 6.73 ± 0.45 mM; Serum NEFA [3, 4]: 0.95 ± 0.03 mEq/l; Final body weight ([3]; LMF 8 μg iv, 7 injections over 72 h, killed at 89 h, mean±SEM, 5 mice): 31.6 ± 2.2 g; Time until body weight significantly lower than PBS treated controls ([3]; LMF iv, FIG. 10): ≤ 41 h; Reduction in body fat content ([3]; body composition analysis at 89 h): 42%; Decrease in total body weight ([3]; overall 89 h period, no change in food and water intake): 3.6 g; Final body weight (ob/ob mice; LMF 35 μg iv, 13 injections over 144 h, 160 h after first injection, mean±SEM, 5 mice): 69.5 ± 4.3 g; Body composition: Fat (ob/ob mice; [5]): 30.6 ± 0.7%; Body composition: Non Fat (ob/ob mice; [5]): 17.4 ± 1.0%; Body composition: Water (ob/ob mice; [5]): 53.7 ± 1.1%; Glucose (ob/ob mice; [5]): 260 ± 12 mg/100 ml; Oxygen uptake (ob/ob mice; [5]): 0.55 ± 0.07 μl/mgBAT/h; Serum 3-Hydroxybutyrate (ob/ob mice; [5]): 0.44 ± 0.01 mM; Serum Glycerol (ob/ob mice; [5]): 5.31 ± 0.45 mM; Serum NEFA (ob/ob mice; [5]): 1.45 ± 0.45 mEq/l; Carcass fat (ob/ob mice; LMF 35 μg iv, body composition analysis at 160 h): 21.09 ± 0.99 g; Time until decrease in total body weight became significant (ob/ob mice; after the first injection, FIG. 11): ≤ 24 h; Initial body weight (ob/ob mice; baseline before first injection): 67.9 ± 2.9 g

B2: Zn-α2-glycoprotein (protein, listed as Homo sapiens)
chain: QENQDGRYSLTYIYTGLSKHVEDVPAFQALGSLNDLQFFRYNSKDRKSQPMGLWRQVEGMEDWKEDSQLQKAREDMETLKDIVEYYNDSNGSHVLQGRFGCEIENNRSSGAFWKYYYDGKDYIEFNKEIPAWVPFDPAAQITKQKWEAEPVYVQRAKAYLEEECPATLRKYLKYSKNILDRQDPPSVVVTSHQAPGEKKKLKCLAYDFYPGKIDVHWTRAGQVQEPELRGDVLHNGNGTYQSWVVVAVPPQDTAPYSCHVQHSSLAQPLVVPWEAS
notes: Zn-α2-glycoprotein purified about 670-fold from fresh human plasma by the method of Ohkubo et al
Q: How did the “Stimulation of glycerol release (lipolysis)” value [1] turn out when B2 was run?
A: stimulated glycerol release with a comparable dose-response profile

Q: What about the “GTP concentration at maximal stimulation of adenylate cyclase” value [2] of the same molecule?
A: 0.1 µM

B3: Mouse LMF: 43 kDa glycoprotein lipid mobilising factor purified from murine adenocarcinoma MAC16 (Example 1) (protein, UniProt Q64726 18-307, looked up)
Zinc-alpha-2-glycoprotein: QETGSYYLTFLYTGLSRPSKGFPRFQATAFLNDQAFFHYNSNSGKAEPVGPWSQVEGMEDWEKESQLQRAREEIFLVTLKDIMDYYKDTTGSHTFQGMFGCEITNNRSSGAVWRYAYDGEDFIEFNKEIPAWIPLDPAAANTKLKWEAEKVYVQRAKAYLEEECPEMLKRYLNYSRSHLDRIDPPTVTITSRVIPGGNRIFKCLAYGFYPQRISLHWNKANKKLAFEPERGVFPNGNGTYLSWAEVEVSPQDIDPFFCLIDHRGFSQSLSVQWDRTRKVKDENNVVAQPQ
Q: Which results are given for B3?
A: Lipid mobilizing activity, glycerol released [1]: 0.0977 ± 0.02 μmole glycerol/10^5 adipocytes/2 h; Specific activity [1]: 50 μmol/10^5 adipocytes/mg protein
